Measured values from patent US5217867.

What was measured:
[1] = system: rTRalpha-Bm+ (rat thyroid hormone receptor alpha) BamHI linker at amino acid 21 (Rattus norvegicus), P63059-2; experiment: cell_activity; conditions: TRE-CAT, T3; which TRE (rGH or palindromic) not stated
[2] = biological target: G-gal-G (hGR with DNA binding domain replaced by GAL4 1-74) (Homo sapiens / Saccharomyces cerevisiae) (UniProt P04150+P04386); experiment: cell_activity
[3] = biological target: GAL4 (Saccharomyces cerevisiae) (UniProt P04386); experiment: cell_activity; conditions: CAT reporter
[4] = system: hGR G426 D426G (Homo sapiens); experiment: pulldown; conditions: relative to hGR-SB
[5] = system: hGR G421 421 to Gly (Homo sapiens); experiment: pulldown; conditions: relative to hGR-SB
[6] = system: hGR G477 477 to Gly (Homo sapiens); experiment: pulldown; conditions: relative to hGR-SB
[7] = system: hGR G471 471 to Gly (Homo sapiens); experiment: pulldown; conditions: relative to hGR-SB
[8] = system: hGR G442 K442G (Homo sapiens); experiment: pulldown; conditions: relative to hGR-SB; binds but transcriptionally inactive
[9] = system: hGR G444 444 to Gly (Homo sapiens); experiment: pulldown; conditions: relative to hGR-SB
[10] = system: hGR G424 424 to Gly (Homo sapiens); experiment: pulldown; conditions: relative to hGR-SB
[11] = system: hGR G463 463 to Gly (Homo sapiens); experiment: pulldown; conditions: relative to hGR-SB
[12] = system: hGR G460 460 to Gly (Homo sapiens); experiment: pulldown; conditions: relative to hGR-SB
[13] = system: hGR G476 476 to Gly (Homo sapiens); experiment: pulldown; conditions: relative to hGR-SB
[14] = system: hGR G462 462 to Gly (Homo sapiens); experiment: pulldown; conditions: relative to hGR-SB
[15] = system: hGR G455 455 to Gly (Homo sapiens); experiment: pulldown; conditions: relative to hGR-SB; may be unstable in vitro
[16] = system: hGR G432 432 to Gly (Homo sapiens); experiment: pulldown; conditions: relative to hGR-SB
[17] = system: hGR G437 437 to Gly (Homo sapiens); experiment: pulldown; conditions: relative to hGR-SB
[18] = system: hGR G446 446 to Gly (Homo sapiens); experiment: pulldown; conditions: relative to hGR-SB; may be unstable in vitro
[19] = system: hGR G465 465 to Gly (Homo sapiens); experiment: pulldown; conditions: relative to hGR-SB
[20] = system: hGR G467 467 to Gly (Homo sapiens); experiment: pulldown; conditions: relative to hGR-SB; may be unstable in vitro
[21] = system: hGR G431 C431G (Homo sapiens); experiment: pulldown; conditions: relative to hGR-SB
[22] = system: hGR G423 423 to Gly (Homo sapiens); experiment: pulldown; conditions: relative to hGR-SB
[23] = system: hGR G470 470 to Gly (Homo sapiens); experiment: pulldown; conditions: relative to hGR-SB
[24] = system: hGR G479 479 to Gly (Homo sapiens); experiment: pulldown; conditions: relative to hGR-SB
[25] = system: hGR G473 473 to Gly (Homo sapiens); experiment: pulldown; conditions: relative to hGR-SB
[26] = system: hGR G447 447 to Gly (Homo sapiens); experiment: pulldown; conditions: relative to hGR-SB
[27] = system: hGR G433 433 to Gly (Homo sapiens); experiment: pulldown; conditions: relative to hGR-SB
[28] = system: hGR G450 450 to Gly (Homo sapiens); experiment: pulldown; conditions: relative to hGR-SB
[29] = system: hGR delta450-487 deletion between residues 450 and 487 (printed positions are the non-deleted junction residues) (Homo sapiens); experiment: pulldown; conditions: relative to hGR-SB
[30] = system: hGR G453 453 to Gly (Homo sapiens); experiment: pulldown; conditions: relative to hGR-SB
[31] = system: hGR G486 486 to Gly (Homo sapiens); experiment: pulldown; conditions: relative to hGR-SB; may be unstable in vitro (10% activity in cells)
[32] = system: hGR G474 474 to Gly (Homo sapiens); experiment: pulldown; conditions: relative to hGR-SB
[33] = system: hGR G457 457 to Gly (Homo sapiens); experiment: pulldown; conditions: relative to hGR-SB
[34] = system: hGR delta420-451 deletion between residues 420 and 451 (printed positions are the non-deleted junction residues) (Homo sapiens); experiment: pulldown; conditions: relative to hGR-SB
[35] = system: hGR G438 438 to Gly (Homo sapiens); experiment: pulldown; conditions: relative to hGR-SB
[36] = system: hGR G480 480 to Gly (Homo sapiens); experiment: pulldown; conditions: relative to hGR-SB
[37] = system: hGR G441 441 to Gly (Homo sapiens); experiment: pulldown; conditions: relative to hGR-SB
[38] = system: hGR G445 445 to Gly (Homo sapiens); experiment: pulldown; conditions: relative to hGR-SB
[39] = system: hGR-SB (human glucocorticoid receptor, wild-type equivalent) (Homo sapiens); experiment: pulldown; conditions: immunoprecipitation DNA binding, reference
[40] = system: hGR G481 481 to Gly (Homo sapiens); experiment: pulldown; conditions: relative to hGR-SB

Chain of G-gal-G (hGR with DNA binding domain replaced by GAL4 1-74) (Homo sapiens / Saccharomyces cerevisiae) (P04150 other isoform, or with tags, fused parts or gaps, chain 1 of 2): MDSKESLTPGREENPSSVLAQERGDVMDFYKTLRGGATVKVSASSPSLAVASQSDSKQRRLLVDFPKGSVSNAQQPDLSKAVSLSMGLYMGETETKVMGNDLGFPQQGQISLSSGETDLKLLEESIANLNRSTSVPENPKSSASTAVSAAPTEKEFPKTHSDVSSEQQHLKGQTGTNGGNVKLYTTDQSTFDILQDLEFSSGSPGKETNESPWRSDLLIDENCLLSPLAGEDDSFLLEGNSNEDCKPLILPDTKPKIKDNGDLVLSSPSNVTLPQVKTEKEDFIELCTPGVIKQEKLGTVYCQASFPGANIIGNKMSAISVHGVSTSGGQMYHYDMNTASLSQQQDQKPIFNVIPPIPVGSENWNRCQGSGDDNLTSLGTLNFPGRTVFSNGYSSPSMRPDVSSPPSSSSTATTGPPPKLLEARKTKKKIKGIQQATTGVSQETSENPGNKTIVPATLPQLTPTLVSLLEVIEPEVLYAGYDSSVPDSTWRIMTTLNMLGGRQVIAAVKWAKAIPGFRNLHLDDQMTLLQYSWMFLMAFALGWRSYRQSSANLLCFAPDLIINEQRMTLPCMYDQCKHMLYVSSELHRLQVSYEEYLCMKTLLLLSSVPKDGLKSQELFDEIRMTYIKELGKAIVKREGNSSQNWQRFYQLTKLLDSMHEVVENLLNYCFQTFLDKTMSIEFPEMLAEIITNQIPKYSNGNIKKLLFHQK
Chain of G-gal-G (hGR with DNA binding domain replaced by GAL4 1-74) (Homo sapiens / Saccharomyces cerevisiae) (P04386 1-74, chain 2 of 2): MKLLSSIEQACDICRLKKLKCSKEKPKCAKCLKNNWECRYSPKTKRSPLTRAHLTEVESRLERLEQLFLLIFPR
Chain of rTRalpha-Bm+ (rat thyroid hormone receptor alpha) BamHI linker at amino acid 21 (Rattus norvegicus), P63059-2 (P63059 whole entry, looked up, the tested form may be a part): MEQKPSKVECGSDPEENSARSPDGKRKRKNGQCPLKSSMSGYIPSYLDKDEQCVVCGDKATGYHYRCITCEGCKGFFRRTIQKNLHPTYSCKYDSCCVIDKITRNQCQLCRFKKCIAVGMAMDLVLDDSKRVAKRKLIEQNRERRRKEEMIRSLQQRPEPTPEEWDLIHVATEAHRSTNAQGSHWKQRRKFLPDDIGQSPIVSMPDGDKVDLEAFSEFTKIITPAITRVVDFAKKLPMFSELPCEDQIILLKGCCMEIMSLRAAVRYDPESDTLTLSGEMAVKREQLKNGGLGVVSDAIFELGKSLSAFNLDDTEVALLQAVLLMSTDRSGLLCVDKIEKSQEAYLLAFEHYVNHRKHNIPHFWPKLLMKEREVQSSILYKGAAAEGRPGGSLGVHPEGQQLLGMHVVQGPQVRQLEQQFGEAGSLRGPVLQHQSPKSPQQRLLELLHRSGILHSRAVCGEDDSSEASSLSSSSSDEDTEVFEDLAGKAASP
Chain of GAL4 (Saccharomyces cerevisiae) (P04386 whole entry, the tested form may be a part): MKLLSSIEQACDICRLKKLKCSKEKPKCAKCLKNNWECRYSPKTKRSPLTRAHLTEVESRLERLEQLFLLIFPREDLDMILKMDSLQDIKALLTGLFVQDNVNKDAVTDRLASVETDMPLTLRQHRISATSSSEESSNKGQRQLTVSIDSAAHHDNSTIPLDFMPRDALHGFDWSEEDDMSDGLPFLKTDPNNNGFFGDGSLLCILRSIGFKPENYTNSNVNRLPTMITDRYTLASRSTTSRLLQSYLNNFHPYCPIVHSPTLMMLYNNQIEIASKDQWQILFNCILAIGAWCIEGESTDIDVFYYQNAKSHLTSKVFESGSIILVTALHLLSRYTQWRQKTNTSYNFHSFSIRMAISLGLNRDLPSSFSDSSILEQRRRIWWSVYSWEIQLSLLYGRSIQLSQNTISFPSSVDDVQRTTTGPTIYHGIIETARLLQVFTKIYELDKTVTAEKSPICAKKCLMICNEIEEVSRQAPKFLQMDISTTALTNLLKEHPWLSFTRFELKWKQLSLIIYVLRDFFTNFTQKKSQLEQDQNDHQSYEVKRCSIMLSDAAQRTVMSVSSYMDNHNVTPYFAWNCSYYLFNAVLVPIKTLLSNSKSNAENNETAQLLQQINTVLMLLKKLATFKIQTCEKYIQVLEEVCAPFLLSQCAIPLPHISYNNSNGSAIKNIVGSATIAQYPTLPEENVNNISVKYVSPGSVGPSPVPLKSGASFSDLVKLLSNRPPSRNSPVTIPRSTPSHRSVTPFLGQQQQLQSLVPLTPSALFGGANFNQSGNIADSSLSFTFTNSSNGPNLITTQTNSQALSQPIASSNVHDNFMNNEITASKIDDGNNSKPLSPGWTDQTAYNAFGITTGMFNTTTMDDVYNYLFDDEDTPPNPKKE

For “TCAGGTCATGACCTGA (double strand) [TRE of TRE-CAT reporter (palindromic TRE)]”, the activity [1] was 100%.
Substance “deltaMTV-CAT promoter (no GAL4 site, GREs deleted)” has an activity ([2]; relative to deltaMTV-GAL-CAT, possible cryptic site) of 5%.
Substance “deltaMTV-GAL-CAT promoter with synthetic GAL4 site 17MX” has an activity [3] of 20 fold and an activity ([2]; with hormone) of 500 fold.
In the case of GRE-containing DNA fragment, the binding signal [4] is reported as 75%, the binding signal [5] is reported as under 1% and the binding signal [6] is reported as 1%. For the same substance, the binding signal [7] was 6%, the binding signal [8] was 60% and the binding signal [9] was 1%. It also gave a binding signal [10] of 1%, a binding signal [11] of 1% and a binding signal [12] of 90%. For the same substance, the binding signal [13] was under 1%, the binding signal [14] was 40% and the binding signal [15] was 6%. It also gave a binding signal [16] of 30%, a binding signal [17] of 8% and a binding signal [18] of 6%. The binding signal [19] was 1%, the binding signal [20] was 6% and the binding signal [21] was 10%. For the same substance, the binding signal [22] was under 1%, the binding signal [23] was 4% and the binding signal [24] was 40%. The binding signal [25] was under 1%, the binding signal [26] was 2% and the binding signal [27] was 1%. It also gave a binding signal [28] of 50%, a binding signal [29] of 1% and a binding signal [30] of 60%. It also gave a binding signal [31] of 1%, a binding signal [32] of 95% and a binding signal [33] of 2%. It also gave a binding signal [34] of 1%, a binding signal [35] of under 1% and a binding signal [36] of 50%. The binding signal [37] was under 1%, the binding signal [38] was under 1% and the binding signal [39] was 100%. For the same substance, the binding signal [40] was 3%.
